Measured values taken from patent US12338277.

Legend:
Experiment in all cases: cell-based or functional assay
[1] = biological target: HIV-1 Env of pseudovirus Q23.17 (HIV-1)
[2] = biological target: HIV-1 envelope of pseudovirus ZM247v1(Rev-) (HIV-1)
[3] = biological target: HIV-1 Env of pseudovirus 9004SS_A3_4 (HIV-1)
[4] = biological target: HIV-1 envelope of pseudovirus SC422661.8 (HIV-1)
[5] = biological target: HIV-1 envelope spike of pseudovirus SS1196.1 (HIV-1)
[6] = biological target: HIV-1 Env of pseudovirus 3365.v2.c2 (HIV-1)
[7] = biological target: HIV-1 envelope of pseudovirus CNE20 (HIV-1)
[8] = biological target: HIV-1 Env of pseudovirus X1193_c1 (HIV-1)
[9] = biological target: HIV-1 envelope of pseudovirus 6041.v3.c23 (HIV-1)
[10] = biological target: HIV-1 envelope spike of pseudovirus BaL.26 (HIV-1)
[11] = biological target: HIV-1 envelope of pseudovirus 6244_13_85_4576 (HIV-1)
[12] = biological target: HIV-1 envelope of pseudovirus QH0692.42 (HIV-1)
[13] = biological target: HIV-1 envelope of pseudovirus Ce704809221_1B3 (HIV-1)
[14] = biological target: HIV-1 envelope of pseudovirus ZM135M.PL10a (HIV-1)
[15] = biological target: HIV-1 envelope of pseudovirus 3817.v2.c59 (HIV-1)
[16] = biological target: HIV-1 Env of pseudovirus 231965.c01 (HIV-1)
[17] = biological target: HIV-1 Env of pseudovirus ZM233M.PB6 (HIV-1)
[18] = biological target: HIV-1 Env of pseudovirus 0815.v3.c3 (HIV-1)
[19] = biological target: HIV-1 Env of pseudovirus X2131_C1_85 (HIV-1)
[20] = biological target: HIV-1 Env of pseudovirus REJO4541.67 (HIV-1)
[21] = biological target: HIV-1 Env of pseudovirus CNE17 (HIV-1)
[22] = biological target: HIV-1 envelope of pseudovirus T250-4 (HIV-1)
[23] = biological target: HIV-1 envelope of pseudovirus Du156.12 (HIV-1)
[24] = biological target: HIV-1 Env of pseudovirus 191821_E6_1 (HIV-1)
[25] = biological target: HIV-1 envelope of pseudovirus 7030102001E5(Rev-) (HIV-1)
[26] = biological target: HIV-1 Env of pseudovirus HIV-0013095-2.11 (HIV-1)
[27] = biological target: HIV-1 envelope of pseudovirus MS208.A1 (HIV-1)
[28] = biological target: HIV-1 envelope spike of pseudovirus TRJO4551.58 (HIV-1)
[29] = biological target: HIV-1 Env of pseudovirus ZM247v1(Rev-) (HIV-1)
[30] = biological target: HIV-1 envelope of pseudovirus CAP45.2.00.G3 (HIV-1)
[31] = biological target: HIV-1 envelope of pseudovirus Ce1172_H1 (HIV-1)
[32] = biological target: HIV-1 Env of pseudovirus 6240_08_TA5_4622 (HIV-1)
[33] = biological target: HIV-1 Env of pseudovirus 6545.v4.c1 (HIV-1)
[34] = biological target: HIV-1 envelope of pseudovirus CNE52 (HIV-1)
[35] = biological target: HIV-1 Env of pseudovirus 6540.v4.c1 (HIV-1)
[36] = biological target: HIV-1 envelope of pseudovirus BF1266.431a (HIV-1)
[37] = biological target: HIV-1 envelope of pseudovirus WITO4160.33 (HIV-1)
[38] = biological target: HIV-1 Env of pseudovirus C4118.c09 (HIV-1)
[39] = biological target: HIV-1 Env of pseudovirus 6952.v1.c20 (HIV-1)
[40] = biological target: HIV-1 Env of pseudovirus 3016.v5.c45 (HIV-1)
[41] = biological target: HIV-1 Env of pseudovirus Ce2010_F5 (HIV-1)
[42] = biological target: HIV-1 envelope of pseudovirus ZM214M.PL15 (HIV-1)
[43] = biological target: HIV-1 Env of pseudovirus ZM249M.PL1 (HIV-1)
[44] = biological target: HIV-1 envelope of pseudovirus Ce1176_A3 (HIV-1)
[45] = biological target: HIV-1 Env of pseudovirus HIV-16845-2.22 (HIV-1)
[46] = biological target: HIV-1 Env of pseudovirus X1632_S2_B10 (HIV-1)
[47] = biological target: HIV-1 envelope spike of pseudovirus CAAN5342.A2 (HIV-1)
[48] = biological target: HIV-1 envelope of pseudovirus CNE30 (HIV-1)
[49] = biological target: HIV-1 envelope of pseudovirus 235-47 (HIV-1)

Chain of 10-996 (antibody) (VH): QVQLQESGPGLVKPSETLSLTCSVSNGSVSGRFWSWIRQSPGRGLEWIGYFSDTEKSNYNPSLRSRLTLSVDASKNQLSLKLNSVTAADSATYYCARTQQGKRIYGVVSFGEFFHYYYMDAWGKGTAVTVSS
Chain of 10-996 (antibody) (VL): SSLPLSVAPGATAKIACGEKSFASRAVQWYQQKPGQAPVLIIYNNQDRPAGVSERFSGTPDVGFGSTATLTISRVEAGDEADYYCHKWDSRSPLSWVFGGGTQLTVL

10-996 (antibody)
IC80 (TZM-bl neutralization) [1]: 0.03 µg/mL
IC50 (TZM-bl neutralization) [2]: 0.055 µg/mL
IC80 (TZM-bl neutralization) [3]: 0.05 µg/mL
IC50 (TZM-bl neutralization) [4]: 0.173 µg/mL
IC50 (TZM-bl neutralization assay) [5]: 0.007 µg/mL
IC80 (TZM-bl neutralization assay) [5]: 0.04 µg/mL
IC80 (TZM-bl neutralization) [6]: 1.38 µg/mL
IC50 (TZM-bl neutralization) [7]: < 0.001 µg/mL
IC80 (TZM-bl neutralization) [8]: 0.482 µg/mL
IC50 (TZM-bl neutralization) [9]: > 50 µg/mL
IC50 (TZM-bl neutralization assay) [10]: 0.045 µg/mL
IC80 (TZM-bl neutralization assay) [10]: 0.228 µg/mL
IC50 (TZM-bl neutralization) [11]: 0.353 µg/mL
IC50 (TZM-bl neutralization) [12]: 0.396 µg/mL
IC50 (TZM-bl neutralization) [13]: 0.243 µg/mL
IC50 (TZM-bl neutralization) [14]: 0.099 µg/mL
IC50 (TZM-bl neutralization) [15]: 8.15 µg/mL
IC80 (TZM-bl neutralization) [16]: > 50 µg/mL
IC80 (TZM-bl neutralization) [17]: 4.52 µg/mL
IC80 (TZM-bl neutralization) [18]: 0.251 µg/mL
IC80 (TZM-bl neutralization) [19]: 0.085 µg/mL
IC80 (TZM-bl neutralization) [20]: > 50 µg/mL
IC80 (TZM-bl neutralization) [21]: 24.7 µg/mL
IC50 (TZM-bl neutralization) [22]: < 0.001 µg/mL
IC50 (TZM-bl neutralization) [23]: 0.018 µg/mL
IC80 (TZM-bl neutralization) [24]: > 50 µg/mL
IC50 (TZM-bl neutralization) [25]: 0.013 µg/mL
IC80 (TZM-bl neutralization) [26]: > 50 µg/mL
IC50 (TZM-bl neutralization) [27]: > 50 µg/mL
IC50 (TZM-bl neutralization assay) [28]: 0.516 µg/mL
IC80 (TZM-bl neutralization assay) [28]: 4.26 µg/mL
IC80 (TZM-bl neutralization) [29]: 0.252 µg/mL
IC50 (TZM-bl neutralization) [30]: > 50 µg/mL
IC50 (TZM-bl neutralization) [31]: 0.058 µg/mL
IC80 (TZM-bl neutralization) [32]: 0.348 µg/mL
IC80 (TZM-bl neutralization) [33]: > 50 µg/mL
IC50 (TZM-bl neutralization) [34]: 4.53 µg/mL
IC80 (TZM-bl neutralization) [35]: > 50 µg/mL
IC50 (TZM-bl neutralization) [36]: > 50 µg/mL
IC50 (TZM-bl neutralization) [37]: 0.538 µg/mL
IC80 (TZM-bl neutralization) [38]: > 50 µg/mL
IC80 (TZM-bl neutralization) [39]: 0.188 µg/mL
IC80 (TZM-bl neutralization) [40]: > 50 µg/mL
IC80 (TZM-bl neutralization) [41]: > 50 µg/mL
IC50 (TZM-bl neutralization) [42]: 0.413 µg/mL
IC80 (TZM-bl neutralization) [43]: > 50 µg/mL
IC50 (TZM-bl neutralization) [44]: 0.043 µg/mL
IC80 (TZM-bl neutralization) [45]: 9.93 µg/mL
IC80 (TZM-bl neutralization) [46]: > 50 µg/mL
IC50 (TZM-bl neutralization assay) [47]: 0.007 µg/mL
IC80 (TZM-bl neutralization assay) [47]: 0.06 µg/mL
IC50 (TZM-bl neutralization) [48]: 0.614 µg/mL
IC50 (TZM-bl neutralization) [49]: 0.128 µg/mL
